# “Also recorded” adds a separate entry of the source.
# Legend:
# [1] = system: CD4+ T-cells; assay: I-MUNE assay: CD4+ T-cell proliferation with dendritic cells and 15-mer peptides offset by 3 amino acids, community donors; details: for Background % / Structure Value / Response/Peptide: Table 3; for Response/Peptide: donors with SI>2.95 per peptide; for Background +/- sd / Responses/peptide found: Table 5
# Method: Peptides were resuspended in DMSO at approximately 1 to 2 mg/ml, and stored at −70° C. prior to use. Each peptide was tested at least in duplicate, although for small peptide sets (e.g., Ber e 1), the peptides were routinely tested in triplicate.
# Volunteer donor human blood buffy coat samples were obtained from two commercial sources (Stanford Blood Center, Palo Alto, Calif., and the Sacramento Medical Foundation, Sacramento, Calif.). Buffy coat samples were further purified by density separation. Each sample was HLA typed for HLA-DR and HLA-DQ using a commercial PCR-based kit (Bio-Synthesis).
# Monocytes were purified by adherence to plastic in AIM V medium (Gibco/Life Technologies). Adherent cells were cultured in AIM V media containing 500 units/ml of recombinant human IL-4 (Endogen) and 800 units/ml recombinant human GM-CSF (Endogen) for 5 days. On day 5, recombinant human IL-1α (Endogen) and recombinant human TNF-α (Endogen) were added to 50 units/ml and 0.2 units/ml, respectively. On day 7, the fully matured dendritic cells were treated with 50 ug/ml mitomycin C (Sigma) for 1 hour at 37° C. Treated dendritic cells were dislodged with 50 mM EDTA in PBS, washed in AIM V medium, counted, and resuspended in AIM V media at 2×10^5 cells/ml.
# CD4^+ T-cells were purified by negative selection from frozen aliquots of human peripheral blood mononuclear cells (PBMC) using Cellect CD4 columns (Cedarlane). CD4^+ T-cell populations were routinely >80% pure and >95% viable as judged by trypan blue (Sigma) exclusion. CD4^+ T-cells were resuspended in AIM V media at 2×10^6 cells per ml.
# CD4^+ T-cells and dendritic cells were plated in round-bottomed 96 well format plates at 100 ul of each cell mix per well. Peptide was added to a final concentration of approximately 5 ug/ml in 0.25-0.5% DMSO. Control wells contained 0.5% DMSO without added peptide. Each peptide was tested in duplicate. Cultures were incubated at 37° C., in 5% CO2 for 5 days. On day 5, 0.5 uCi of tritiated thymidine (NEN DuPont,) was added to each well. On day 6, the cultures were harvested onto glass fiber mats using a TomTec manual harvester (TomTec), then processed for scintillation counting. Proliferation was assessed by determining the average counts per minute (CPM) value for each set of duplicate wells (TriLux Beta).
# For each individual buffy coat sample, the average CPM values for all of the peptides were analyzed. The average CPM values for each peptide were divided by the average CPM value for the control (DMSO only) wells to determine the “stimulation index” (SI). Donors were tested with each peptide set until an average of at least two responses per peptide were compiled. The data for each protein was graphed showing the percent responders to each peptide within the set. A positive response was collated if the SI value was equal to or greater than 2.95. This value was chosen as it approximates a difference of three standard deviations in a normal population distribution. For each protein assessed, positive responses to individual peptides by individual donors were compiled. To determine the background response for a given protein, the percent responders for each peptide in the set were averaged and a standard deviation was calculated. SI values for each donor were compiled for each peptide set, and the percent of responders reported.
# [2] = system: 18 different HLA-DR and -DQ proteins; assay: HLA class II peptide binding competition assay, panel of 18 alleles; design: species or system human; details: good binders: IC50 less than 500 nM
# Method: FIG. 17 provides a table showing the IC50 binding values for epitope peptides identified in bacterial proteases by the I-MUNE® assay system of the present invention. Values less than 500 nM are considered to be good binders and are highlighted in bold in the Table. Degeneracy indicates the number of HLA class II proteins that bind with an IC50 of less than 500 nM out of the 18 total alleles tested.
# In addition to the above I-MUNE® assay, peptide binding assays were also performed. The peptide binding assay used during the development of the present invention is known in the art (Southwood et al., J. Immunol., 160:3363-3373 [1998]). Briefly, HLA-DR and -DQ molecules were purified from a panel of EBV transformed cell lines. A competition assay was performed with a characterized standard peptide, and the unknown peptide. The amount of unknown peptide required to compete 50% of the standard peptide binding was then determined (indicated as the IC50).
# The IC50 for HLA class II protein binding was determined for peptide epitopes defined by the in two related industrial bacterial proteases (See, FIG. 17). The peptides were tested in a competition assay for binding to 18 different HLA-DR and -DQ proteins. […] This likely explains the association seen in the data for a response to this peptide with HLA-DR6(13) donors (p=0.00015; relative risk=7.22, n=113 donors tested). […]
# [3] = system: PBMC; assay: Maximum proliferative response of PBMC from 30 community donors to inactivated whole protein; assay type: cell-based, human; details: inactivated enzymes, 5 to 40 ug/ml, 30 donors; p<0.01; listed as protease variant
# Method: FIG. 9 provides a graph showing the maximum proliferative responses of PBMC from 30 community donors to BPN′ Y217L (open triangles, structure value=0.53) and the […] BPN′ Y217L variant (closed squares, structure value=0.40). Each donor's maximum response is shown on the y-axis. An SI of 2.0 was the cut-off for a “positive” response. The difference in proliferative responses between BPN′ Y217L and the variant was p<0.01.
# In these experiments, PMBC from thirty community donors were tested parametrically with either the whole protein parent enzyme (BPN′ Y217L) or the variant protease. The enzymes were inactivated, and tested over a dose range from 5 to 40 ug/ml. […] The difference between optimal SI values for the two proteins tested on these thirty donors was significant, with a two-tailed parametric t-test value of p<0.01.
Molecule,Background % [1],Structure Value [1],Response/Peptide [1],further results
"E7 18: HPV E7 protein, HPV strain 18",3.55%,0.44,3.19,–
"BPN' Y217L #24: 15-mer epitope peptide number 24 of BPN′ Y217L, first epitope (amino acids 70-84) (GTVAALNNSIGVLGV; UniProt P00782 177-191, looked up, fragment)",–,–,–,HLA class II binding (in words) [2]: binds most HLA class II molecules tested
"BPN' Y217L#37: 15-mer epitope peptide number 37 of BPN′ Y217L, second epitope (amino acids 109-123) (NGIEWAIANNMDVIN; UniProt P00782 216-230, looked up, fragment)",–,–,–,HLA class II binding (in words) [2]: promiscuous
"hTpo: human thrombopoietin, a cytokine whose expression is restricted to the bone marrow",–,–,–,Structure value in words [1]: comparatively high; Background +/- sd [1]: 2.54 +/− 2.23
"E7 16: HPV E7 protein, HPV strain 16",4.33%,0.66,3.9,–
"E6 18: human papillomavirus E6 protein, HPV strain 18",4.23%,0.79,2.32,Background response in words (compared with the 11 industrial enzymes) [1]: not significantly different; Background +/- sd [1]: 4.23 +/− 4.25; Responses/peptide found [1]: 2.32
"E6 33: human papillomavirus E6 protein, HPV strain 33 (protein, UniProt P06427 1-149, looked up) Protein E6: MFQDTEEKPRTLHDLCQALETTIHNIELQCVECKKPLQRSEVYDFAFADLTVVYREGNPFGICKLCLRFLSKISEYRHYNYSVYGNTLEQTVKKPLNEILIRCIICQRPLCPQEKKRHVDLNKRFHNISGRWAGRCAACWRSRRRETAL",2.83%,0.68,1.97,–
"E7 31: HPV E7 protein, HPV strain 31 (protein, UniProt P17387 1-98, looked up) Protein E7: MRGETPTLQDYVLDLQPEATDLHCYEQLPDSSDEEDVIDSPAGQAEPDTSNYNIVTFCCQCKSTLRLCVQSTQVDIRILQELLMGSFGIVCPNCSTRL",5.26%,0.78,3.1,–
"E7 45: HPV E7 protein, HPV strain 45 (protein, UniProt P21736 1-106, looked up) Protein E7: MHGPRETLQEIVLHLEPQNELDPVDLLCYEQLSESEEENDEADGVSHAQLPARRAEPQRHKILCVCCKCDGRIELTVESSAEDLRTLQQLFLSTLSFVCPWCATNQ",3.75%,0.76,2.44,–
"BPN′ variant: BPN′ Y217L variant where prominent responses to amino acids 70-84 and 109-123 were reduced to background level (protein, UniProt P00782 108-382, looked up, variant Y217L) Subtilisin BPN': AQSVPYGVSQIKAPALHSQGYTGSNVKVAVIDSGIDSSHPDLKVAGGASMVPSETNPFQDNNSHGTHVAGTVAALNNSIGVLGVAPSASLYAVKVLGADGSGQYSWIINGIEWAIANNMDVINMSLGGPSGSAALKAAVDKAVASGVVVVAAAGNEGTSGSSSTVGYPGKYPSVIAVGAVDSSNQRASFSSVGPELDVMAPGVSIQSTLPGNKYGALNGTSMASPHVAGAAALILSKHPNWTNTQVRSSLENTTTKLGDSFYYGKGLINVQAAAQ",–,–,–,"Proliferation compared with the parent protein (in words) [3]: significantly less proliferation; also recorded: induced less proliferation; Prominent Epitope ([1]; Table 4, number of prominent epitopes): 0; Structure value of variant ([1]; calculated from the 113-donor dataset with responses to 70-84 and 109-123 reduced to background levels): 0.40"
"E6 16: human papillomavirus E6 protein, HPV strain 16 (protein, UniProt P03126 1-158, looked up) Protein E6: MHQKRTAMFQDPQERPRKLPQLCTELQTTIHDIILECVYCKQQLLRREVYDFAFRDLCIVYRDGNPYAVCDKCLKFYSKISEYRHYCYSLYGTTLEQQYNKPLCDLLIRCINCQKPLCPEEKQRHLDKKQRFHNIRGRWTGRCMSCCRSSRTRRETQL",7.12%,0.72,3.92,Background response in words (compared with the 11 industrial enzymes) [1]: significantly higher; Background +/- sd [1]: 7.12 +/− 6.48; Responses/peptide found [1]: 3.92
"E6 31: human papillomavirus E6 protein, HPV strain 31 (protein, UniProt P17386 1-149, looked up) Protein E6: MFKNPAERPRKLHELSSALEIPYDELRLNCVYCKGQLTETEVLDFAFTDLTIVYRDDTPHGVCTKCLRFYSKVSEFRWYRYSVYGTTLEKLTNKGICDLLIRCITCQRPLCPEEKQRHLDKKKRFHNIGGRWTGRCIACWRRPRTETQV",4.66%,0.53,3.26,–
"E7 33: HPV E7 protein, HPV strain 33 (protein, UniProt P06429 1-97, looked up) Protein E7: MRGHKPTLKEYVLDLYPEPTDLYCYEQLSDSSDEDEGLDRPDGQAQPATADYYIVTCCHTCNTTVRLCVNSTASDLRTIQQLLMGTVNIVCPTCAQQ",4.32%,0.54,2.55,–
"ALCALASE ®: ALCALASE® enzyme, commercially available from Novo; Swissprot accession number P00780 (protein, UniProt P00780 106-379, looked up) Subtilisin Carlsberg: AQTVPYGIPLIKADKVQAQGFKGANVKVAVLDTGIQASHPDLNVVGGASFVAGEAYNTDGNGHGTHVAGTVAALDNTTGVLGVAPSVSLYAVKVLNSSGSGSYSGIVSGIEWATTNGMDVINMSLGGASGSTAMKQAVDNAYAKGVVVVAAAGNSGSSGNTNTIGYPAKYDSVIAVGAVDSNSNRASFSSVGAELEVMAPGAGVYSTYPTNTYATLNGTSMASPHVAGAAALILSKHPNLSASQVRNRLSSTATYLGSSFYYGKGLINVEAAAQ",–,–,–,Prominent responses (amino acids / peptide positions) ([1]; regions of the protein sequence): 19-33
"sTNFR1: soluble tumor necrosis factor receptor 1, a soluble recombinant cytokine receptor molecule (protein, UniProt P19438 30-211, looked up, extracellular domain) extracellular domain: LVPHLGDREKRDSVCPQGKYIHPQNNSICCTKCHKGTYLYNDCPGPGQDTDCRECESGSFTASENHLRHCLSCSKCRKEMGQVEISSCTVDRDTVCGCRKNQYRHYWSENLFQCFNCSLCLNGTVHLSCQEKQNTVCTCHAGFFLRENECVSCSNCKKSLECTKLCLPQIENVKGTEDSGTT",–,–,–,Background +/- sd [1]: 2.23 +/− 1.95

# — US7879571B2, “Population based assessments and means to rank the relative immunogenicity of proteins” (Danisco US Inc., priority 2003, dated 2011)
